# From patent US12123876B2, “Antibody binding to HEG1 and use of the antibody for detection and treatment of mesothelioma” (Kanagawa Prefectural Hospital Organization, priority 2016, dated 2024)
# Entries after “also recorded” stand apart in the source; their conditions may differ.
# B1: SKM9-2 antibody: mouse monoclonal IgG1 kappa antibody binding glycosylated HEG1; heavy chain SEQ ID NO: 2, light chain SEQ ID NO: 4 (antibody, listed as Mus musculus)
# heavy: MGWSSIILFLVATTTGVHSQVQLQQPGAELVRPGASVKLSCKASGFSFTTYWITWVKQRPGQGLEWIGMIHPSDSETRLSQTFKDKATLTVDKSSNTAYMQFSSPTSEDSAVYYCVRDFDVWGAGTTVTVSSAKTTPPSVYPLAPGSAAQTNSMVTLGCLVKGYFPEPVTVTWNSGSLSSGVHTFPAVLQSDLYTLSSSVTVPSSTWPSETVTCNVAHPASSTKVDKKIVPRDCGCKPCICTVPEVSSVFIFPPKPKDVLTITLTPKVTCVVVDISKDDPEVQFSWFVDDVEVHTAQTQPREEQFNSTFRSVSELPIMHQDWLNGKEFKCRVNSAAFPAPIEKTISKTKGRPKAPQVYTIPPPKEQMAKDKVSLTCMITDFFPEDITVEWQWNGQPAENYKNTQPIMDTDGSYFVYSKLNVQKSNWEAGNTFTCSVLHEGLHNHHTEKSLSHSPGK
# light: MKLPVRLLVLMFWIPASISDVLMTQTPLSLPVSLGDQASISCRSSQNIVHNNGNTYLGWYLQKPGQSPKLLIFKVSNRFSGVPDRFSGSGSGTDFTLKISRVEAEDLGVYYCFQGSHIPRTFGGGTRLEIKRADAAPTVSIFPPSSEQLTSGGASVVCFLNNFYPKDINVKWKIDGSERQNGVLNSWTDQDSKDSTYSMSSTLTLTKDEYERHNSYTCEATHKTSTSPIVKSFNRNEC
# How the values were obtained:
# [1] = tested on: Lung carcinoma, other carcinomas, soft tissue sarcoma, bone sarcoma; assay: Immunohistological staining of other carcinomas and sarcomas (detection specificity to mesothelioma); design: species or system human
# Method: AMeX-fixed cell precipitates or formalin-fixed tissues were paraffin-embedded to prepare thin sections. Each of the sections was fixed to a microscope slide, and subjected to deparaffinization and dehydration with xylene and ethanol, followed by activation of an antigen under different conditions. Each section was treated with 3% hydrogen peroxide for 5 minutes to deactivate endogenous peroxidase, and then washed with PBS and blocked with 0.5% casein for 10 minutes. After 100 μL of a solution containing a primary antibody was added to each section and treated at room temperature for 2 hours, the section was washed with PBS and allowed to develop color by using a Histofine Simple Stain MAX-PO (Multi) ([…] BIOSCIENCE INC.), Ventana ultraView DAB universal kit (Roche Diagnostics K. K.), or the EnVision+kits. Each section was stained with hematoxylin and then dehydrated, and encapsulated with Malinol (MUTO PURE CHEMICALS CO., LTD.) to observe under a microscope. The conditions for activation of an antigen were as follows: at 98° C. for 40 minutes for calretinin, mesothelin, and the SKM9-2 antigen; and at 95° C. for 64 minutes for cytokeratin 5/6 (CK5/6), podoplanin, and Wilms' tumor gene product 1 (WT-1). The following activation solutions were used: 10 mM Tris buffer (pH 9.0) containing 1 mM ethylenediamine tetraacetate (EDTA) for calretinin, CK5/6, and podoplanin; and 10 mM citrate buffer (pH 6.0) containing 0.1% TWEEN® 20 (polyethylene glycol sorbitan monolaurate, polyoxyethylenesorbitan monolaurate) for WT-1, mesothelin, and the SKM9-2 antigen. The following primary antibodies were used: a rabbit anti-calretinin polyclonal antibody (PAD:DC8) (Life Technologies Japan Ltd., Tokyo, Japan) for calretinin; a mouse anti-cytokeratin 5,6 monoclonal antibody (D5/16B4) ([…] BIOSCIENCE INC.) for CK5/6; a mouse anti-human mesothelin monoclonal antibody (5B2) (Leica Microsystems, Inc., Bannockburn, IL) for mesothelin; a mouse anti-podoplanin monoclonal antibody (D2-40) (Roche Diagnostics K. K.) for podoplanin; and a mouse anti-human WT-1 monoclonal antibody (6F-H2) (Roche Diagnostics K. K.) for WT-1.
# Subsequently, the detection characteristics of the SKM9-2 antibody for other carcinomas were compared with those of other antibodies to confirm the detection specificity to mesothelioma. In this measurement, the detection specificity of each antibody was measured for several carcinomas: gastric carcinoma, colorectal carcinoma, breast carcinoma, ovarian carcinoma, renal cell carcinoma, and urothelial carcinoma, which are more likely to present problems in differential diagnosis of mesothelioma, as “Other carcinomas”; carcinosarcoma, liposarcoma, rhabdomyosarcoma, leiomyosarcoma, fibrosarcoma, synovial sarcoma, gastrointestinal stromal sarcoma (GIST), Ewing's sarcoma, alveolar soft part sarcoma (ASPS), solitary fibrous tumor, malignant peripheral nerve sheath tumor (MPNST), angiosarcoma, epithelioid hemangioendothelioma, epithelioid angiosarcoma, and biphasic synovial sarcoma as “Soft tissue sarcoma”; and chondrosarcoma and osteosarcoma as “Bone sarcoma”.
# [2] = tested on: HEG1 protein (purified from ACC-MESO4 or recombinant soluble HEG1); assay: Western blot / dot blot reactivity of antibodies with HEG1 protein; assay type: binding, human
# Method: A massive amount of ACC-MESO4 was cultured, and purification of an antigen from the cell lysate was performed. Cells from 240 10-cm dishes were solubilized with 50 mM Tris buffer (pH 8.0) containing 1% TRITON™ X-100 (detergent), 1% CHAPS, 1 mM EDTA, 50 mM NaCl, and protease inhibitor (Complete, Roche Life Science), and then centrifuged. The resulting supernatant was dialyzed with 20 mM acetate buffer (pH 5.0) at 4° C. for 18 hours to afford an acidic precipitate. The precipitate was extracted with 20 mM Tris buffer (pH 7.2) containing 0.1% TWEEN® 20 (polyethylene glycol sorbitan monolaurate, polyoxyethylenesorbitan monolaurate) and 150 mM NaCl and centrifuged, and the resulting supernatant was concentrated by using an Amicon Ultra-15, 100 kDa (Merck Millipore) and subjected to solution exchange with 20 mM Tris buffer (pH 8.0) containing 6 M guanidine hydrochloride. To the concentrated solution, tris(2-carboxyethyl)phosphine hydrochloride with a final concentration of 10 mM was added, and the resultant was heated at 60° C. for 30 minutes, and iodoacetamide with a final concentration of 40 mM was then added thereto, and reacted at room temperature for 3 hours. The reaction solution was subjected to gel filtration chromatography (SUPEROSE® 6 INCREASE (prepacked column) 10/300 GL (GE Healthcare)) in 20 mM Tris buffer (pH 8.0) containing 6 M guanidine hydrochloride and 0.05% TWEEN® 20 (polyethylene glycol sorbitan monolaurate, polyoxyethylenesorbitan monolaurate), and fractions positive for dot blot were collected. The sample was dialyzed with 25 mM phosphate buffer (pH 7.0) containing 4 M urea and 0.05% TWEEN® 20 (polyethylene glycol sorbitan monolaurate, polyoxyethylenesorbitan monolaurate) at room temperature overnight, and applied to a Mono Q 5/50 GL (GE Healthcare). The column was washed with 25 mM phosphate buffer (pH 7.0) containing 4 M urea and 0.05% TWEEN® 20 (polyethylene glycol sorbitan monolaurate, polyoxyethylenesorbitan monolaurate), and thereafter elution was performed with an NaCl salt concentration gradient of 0 to 1 M. Fractions strongly positive for dot blot were collected, and dialyzed with 25 mM phosphate buffer (pH 7.2) containing 150 mM NaCl and 0.05% TWEEN® 20 (polyethylene glycol sorbitan monolaurate, polyoxyethylenesorbitan monolaurate) at room temperature overnight, and applied to 1 mL of WGA-SEPHAROSE® (wheat germ agglutinin-crosslinked, beaded-form of agarose) (J-OIL MILLS, Inc.). After washing with buffer, elution was performed with 25 mM phosphate buffer (pH 7.2) containing 0.2 M N-acetylglucosamine, 150 mM NaCl, and 0.05% TWEEN® 20 (polyethylene glycol sorbitan monolaurate, polyoxyethylenesorbitan monolaurate), and the eluent was concentrated with a Centricon (YM-30) (Millipore). Gel filtration chromatography (SUPEROSE® 6 INCREASE (prepacked column) 10/300 GL (GE Healthcare)) was performed in 25 mM phosphate buffer (pH 7.2) containing 3 M GdnHCI and 0.5% CHAPS, and fractions strongly positive for dot blot were dialyzed with 20 mM NH4HCO3 containing 0.5% CHAPS at room temperature overnight to afford a purified antigen.
# The dot blot was performed as follows. A PVDF membrane (Immobilon-P, Merck Millipore) was soaked in methanol, and then washed and impregnated with pure water. The hydrophilized PVDF membrane was placed on a filter paper containing water to avoid air inclusion, removed of excessive moisture, and soaked with 1 to 5 μL of the sample in dots fed by a micropipette. After the membrane was dried at room temperature overnight, the membrane was hydrophilized again with methanol and pure water, and blocked with 20 mM Tris buffer (pH 7.4) containing 5% skim milk, 0.1% TWEEN® 20 (polyethylene glycol sorbitan monolaurate, polyoxyethylenesorbitan monolaurate), and 150 mM NaCl (blocking buffer) at room temperature for 1 hour. […]
molecule,measurement,setting,value
B1,Bone sarcoma (positive cases/cases),[1]; chondrosarcoma and osteosarcoma,0/20
same,"Positive cases, epithelioid hemangioendothelioma",[1]; epithelioid hemangioendothelioma,1/6
same,Other carcinomas (positive cases/cases),"[1]; gastric, colorectal, breast, ovarian, renal cell, urothelial carcinoma",1/60
same,"Positive cases, leiomyosarcoma",[1]; leiomyosarcoma,1/10
same,Lung carcinoma (positive cases/cases),[1]; lung carcinoma,0/98
same,Specificity (%),[1]; mesothelioma specificity over all non-mesothelioma tumors,99.0%
same,Soft tissue sarcoma (positive cases/cases),[1]; soft tissue sarcoma,2/132
same,"Positive cases, urothelial carcinoma",[1]; urothelial carcinoma,1/10
same,Recognition of purified antigen band at approximately 400 kDa,"[2]; Western blotting, antigen purified from ACC-MESO4",recognized
same,Reactivity with antigen after N-glycanase (PNGase F) treatment,[2]; dot blot,did not cause the antibody to lose the reactivity
same,Reactivity with antigen after Proteinase K treatment,[2]; dot blot,caused the antibody to lose the reactivity
same,Reactivity with antigen treated with neuraminidase,"[2]; dot blot, HEG1 protein purified from ACC-MESO4, neuraminidase treatment",did not bind; also recorded: weakened
